The values below come from patent US20230414796A1, “COMBINATION OF PARA-AMINOHIPPURIC ACID (PAH) AND RADIOLABELED COMPLEXES FOR TREATING CANCER” (priority 2020, published 2023).

Molecules are shown by their SMILES.

Series [1] can be described thus: Example 1: body weight of AR42J xenograft CD1 nude mice. Conditions: mouse, in vivo. The procedure: Body weight and tumor volume were evaluated every two to three days for a period of 57 days after treatment (or until the tumor size limit was reached). The tumor volume was determined by measuring the length, the width and the depth of the tumor with a digital caliper. Tumor volume was calculated by using the following formula: […]
The mice were monitored until the individual tumor size reached 1500 mm^3. When this experimental endpoint was reached or after a 57 days period following treatment, mice were euthanized. Mean tumor volume and body weight of AR42J xenograft CD1 nude mice were calculated for each treatment group throughout the duration of the study.

The nature of series [2]: Example 2: body weight of AR42J xenograft SWISS mice. Conditions: mouse, in vivo. Set-up: species or system SWISS nude mice. How it is done: 10 min prior to dosing of ^177Lu-DOTATOC, mice of groups 1 and 2 were injected intraperitoneally with 50 μL saline or PAH, respectively.
Body weight and tumor volume were evaluated every two to three days for a period of 46 days after treatment (or until the tumor size limit was reached). The tumor volume was determined by measuring the length, the width and the depth of the tumor with a digital caliper. Tumor volume was calculated by using the following formula: […]
The mice were monitored until the individual tumor size reached 1500 mm^3. When this experimental endpoint was reached or after a 46 days period following treatment, mice were euthanized. Mean tumor volume and body weight of AR42J xenograft SWISS mice were calculated for each treatment group throughout the duration of the study.

In the case of `C[C@@H](O)[C@@H]1NC(=O)[C@H](CCCCN)NC(=O)[C@@H](Cc2c[nH]c3ccccc23)NC(=O)[C@H](Cc2ccc(O)cc2)NC(=O)[C@@H](NC(=O)[C@@H](Cc2ccccc2)NC(=O)CN2CCN(CC(=O)O)CCN(CC(=O)O)CCN(CC(=O)O)CC2)CSSC[C@@H](C(=O)N[C@H](CO)[C@@H](C)O)NC1=O` [^177Lu-DOTATOC, ^177Lu-DOTA-D-Phe-cyclo(Cys-Tyr-D-Trp-Lys-Thr-Cys]-Thr(ol), metal not drawn], in series [1], the “average weight change compared to untreated tumor-bearing control mice” value was “increased similarly” and the “physical appearance throughout the study period” value is reported as “maintained a healthy physical appearance”. In series [2], the “average weight increase compared to tumor-bearing control mice” value is on record as “increased slightly more slowly”, the “physical appearance throughout the study period” value is on record as “maintained a healthy physical appearance” and the “radiotoxicity (suggested by body weight)” value is listed as “low radiotoxicity”.
